Measured values taken from IntAct's records for PubMed 15173383.

B1: DNA polymerase delta small subunit (Saccharomyces cerevisiae), P46957 (parent)
chain: MDALLTKFNEDRSLQDENLSQPRTRVRIVDDNLYNKSNPFQLCYKKRDYGSQYYHIYQYRLKTFRERVLKECDKRWDAGFTLNGQLVLKKDKVLDIQGNQPCWCVGSIYCEMKYKPNVLDEVINDTYGAPDLTKSYTDKEGGSDEIMLEDESGRVLLVGDFIRSTPFITGVVVGILGMEAEAGTFQVLDICYPTPLPQNPFPAPIATCPTRGKIALVSGLNLNNTSPDRLLRLEILREFLMGRINNKIDDISLIGRLLICGNSVDFDIKSVNKDELMISLTEFSKFLHNILPSISVDIMPGTNDPSDKSLPQQPFHKSLFDKSLESYFNGSNKEILNLVTNPYEFSYNGVDVLAVSGKNINDICKYVIPSNDNGESENKVEEGESNDFKDDIEHRLDLMECTMKWQNIAPTAPDTLWCYPYTDKDPFVLDKWPHVYIVANQPYFGTRVVEIGGKNIKIISVPEFSSTGMIILLDLETLEAETVKIDI
partner: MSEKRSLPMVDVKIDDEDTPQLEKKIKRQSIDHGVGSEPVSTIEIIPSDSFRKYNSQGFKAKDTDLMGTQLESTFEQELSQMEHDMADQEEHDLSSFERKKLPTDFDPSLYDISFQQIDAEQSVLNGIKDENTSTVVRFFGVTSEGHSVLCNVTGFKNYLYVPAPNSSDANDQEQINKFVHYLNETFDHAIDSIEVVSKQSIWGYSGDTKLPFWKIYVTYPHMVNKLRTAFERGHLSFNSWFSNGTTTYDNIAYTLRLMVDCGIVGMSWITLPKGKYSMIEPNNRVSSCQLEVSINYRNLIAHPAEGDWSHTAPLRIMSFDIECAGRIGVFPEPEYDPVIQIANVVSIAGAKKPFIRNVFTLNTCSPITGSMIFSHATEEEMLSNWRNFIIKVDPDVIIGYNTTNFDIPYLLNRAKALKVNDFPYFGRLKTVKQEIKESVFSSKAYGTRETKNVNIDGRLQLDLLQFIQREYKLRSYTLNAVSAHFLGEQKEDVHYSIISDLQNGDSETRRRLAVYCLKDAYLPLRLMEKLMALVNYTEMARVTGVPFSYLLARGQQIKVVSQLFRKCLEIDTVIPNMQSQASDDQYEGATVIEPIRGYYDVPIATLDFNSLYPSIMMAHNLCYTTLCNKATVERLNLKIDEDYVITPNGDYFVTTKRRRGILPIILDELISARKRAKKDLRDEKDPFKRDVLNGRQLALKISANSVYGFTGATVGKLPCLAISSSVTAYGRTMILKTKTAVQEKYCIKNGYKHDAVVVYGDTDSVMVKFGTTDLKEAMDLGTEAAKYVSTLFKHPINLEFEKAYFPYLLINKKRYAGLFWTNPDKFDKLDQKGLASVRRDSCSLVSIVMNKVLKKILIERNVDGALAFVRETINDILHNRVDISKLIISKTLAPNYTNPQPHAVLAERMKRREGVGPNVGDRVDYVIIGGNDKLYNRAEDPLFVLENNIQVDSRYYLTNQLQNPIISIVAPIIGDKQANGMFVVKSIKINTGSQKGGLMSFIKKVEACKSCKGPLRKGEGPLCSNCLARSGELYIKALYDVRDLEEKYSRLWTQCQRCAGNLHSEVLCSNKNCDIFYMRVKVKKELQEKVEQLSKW
B2: DNA polymerase delta catalytic subunit (Saccharomyces cerevisiae), P15436 (parent)
chain: B1 partner
partner: B1 chain
B3: DNA polymerase delta catalytic subunit (Schizosaccharomyces pombe (strain ATCC 38366 / 972)), P30316 (parent)
chain: MTDRSSNEGVVLNKENYPFPRRNGSIHGEITDVKRRRLSERNGYGDKKGSSSKEKTSSFEDELAEYASQLDQDEIKSSKDQQWQRPALPAINPEKDDIYFQQIDSEEFTEGSVPSIRLFGVTDNGNSILVHVVGFLPYFYVKAPVGFRPEMLERFTQDLDATCNGGVIDHCIIEMKENLYGFQGNEKSPFIKIFTTNPRILSRARNVFERGEFNFEELFPVGVGVTTFESNTQYLLRFMIDCDVVGMNWIHLPASKYQFRYQNRVSNCQIEAWINYKDLISLPAEGQWSKMAPLRIMSFDIECAGRKGVFPDPSIDPVIQIASIVTQYGDSTPFVRNVFCVDTCSQIVGTQVYEFQNQAEMLSSWSKFVRDVDPDVLIGYNICNFDIPYLLDRAKSLRIHNFPLLGRIHNFFSVAKETTFSSKAYGTRESKTTSIPGRLQLDMLQVMQRDFKLRSYSLNAVCSQFLGEQKEDVHYSIITDLQNGTADSRRRLAIYCLKDAYLPQRLMDKLMCFVNYTEMARVTGVPFNFLLARGQQIKVISQLFRKALQHDLVVPNIRVNGTDEQYEGATVIEPIKGYYDTPIATLDFSSLYPSIMQAHNLCYTTLLDSNTAELLKLKQDVDYSVTPNGDYFVKPHVRKGLLPIILADLLNARKKAKADLKKETDPFKKAVLDGRQLALKVSANSVYGFTGATNGRLPCLAISSSVTSYGRQMIEKTKDVVEKRYRIENGYSHDAVVIYGDTDSVMVKFGVKTLPEAMKLGEEAANYVSDQFPNPIKLEFEKVYFPYLLISKKRYAGLFWTRTDTYDKMDSKGIETVRRDNCPLVSYVIDTALRKMLIDQDVEGAQLFTKKVISDLLQNKIDMSQLVITKALSKTDYAAKMAHVELAERMRKRDAGSAPAIGDRVAYVIIKGAQGDQFYMRSEDPIYVLENNIPIDAKYYLENQLSKPLLRIFEPILGEKASSLLHGDHTRTISMAAPSVGGIMKFAVKVETCLGCKAPIKKGKTALCENCLNRSAELYQRQVAQVNDLEVRFARLWTQCQRCQGSMHQDVICTSRDCPIFYMRIAEHKKLQQSVDLLKRFDEMSW
partner: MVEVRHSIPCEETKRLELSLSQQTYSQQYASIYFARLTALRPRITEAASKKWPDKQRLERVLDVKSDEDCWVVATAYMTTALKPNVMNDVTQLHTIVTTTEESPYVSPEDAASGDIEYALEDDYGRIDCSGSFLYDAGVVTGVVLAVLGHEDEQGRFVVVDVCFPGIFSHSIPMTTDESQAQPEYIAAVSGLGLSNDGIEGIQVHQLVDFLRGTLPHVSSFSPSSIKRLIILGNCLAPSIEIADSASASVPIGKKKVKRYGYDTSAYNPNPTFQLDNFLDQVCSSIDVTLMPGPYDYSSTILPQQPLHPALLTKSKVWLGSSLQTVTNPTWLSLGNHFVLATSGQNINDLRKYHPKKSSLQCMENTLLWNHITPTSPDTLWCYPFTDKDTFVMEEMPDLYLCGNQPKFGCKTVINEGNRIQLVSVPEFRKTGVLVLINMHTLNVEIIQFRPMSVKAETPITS

Variants of: B1
Settings: with dpod_yeast POL3, P15436

| Variant | effect of a mutation on the interaction |
| --- | --- |
| K358E | increasing interaction |

Variants of: B2
Settings: with dpod2_yeast POL31, P46957

| Variant | effect of a mutation on the interaction |
| --- | --- |
| C1059A | decreasing interaction |
| C1056A | decreasing interaction |
| R1058A | decreasing interaction |
| C1074A | decreasing interaction |
| H1064A | decreasing interaction |
| C1069A | decreasing interaction |
| E1047A | decreasing interaction |
| Q1057A | decreasing interaction |

Variants of: B3
Settings: with dpod2_schpo cdc1, P87324

| Variant | effect of a mutation on the interaction |
| --- | --- |
| C1040A | decreasing interaction |
| C1058S | decreasing interaction |
| C1058A | decreasing interaction |
| C1053A | decreasing interaction |
| C1043A | decreasing interaction |
